Source: patent publication US8828940B2, “Method of treating an ischemia-reperfusion injury-related disorder by administering GPCR ligands” (priority 2006, dated 2014)
No end group written: not given here.

What was measured:
FPRL1 [1] = target: T1, FPRL1 (Homo sapiens, UniProt P25090); test: Calcium flux in FPRL1-transfected CHO-K1 cells; type: cell-based; design: expressed in transfected cells; host or cells: CHO-K1 (ATCC-CCL-61), transient co-transfection; details: for calcium flux relative to the negative control: CHO-K1 co-transfected with FPRL1 and Gα16, 1 μM, about 20-90 seconds
T1 sequence (P25090 1-351): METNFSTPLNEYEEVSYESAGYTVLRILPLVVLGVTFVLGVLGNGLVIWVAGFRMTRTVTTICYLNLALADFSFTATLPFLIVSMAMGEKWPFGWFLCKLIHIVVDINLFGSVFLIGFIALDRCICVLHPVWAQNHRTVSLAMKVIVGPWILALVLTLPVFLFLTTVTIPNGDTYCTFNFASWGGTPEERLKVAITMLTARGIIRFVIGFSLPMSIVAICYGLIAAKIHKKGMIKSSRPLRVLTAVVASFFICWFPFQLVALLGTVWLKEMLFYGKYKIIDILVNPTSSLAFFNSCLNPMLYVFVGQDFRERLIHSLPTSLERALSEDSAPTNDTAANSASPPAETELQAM
Method: (§1) The assay was carried out in CHO cells were transiently transfected with the GPCR of choice, by utilizing the promiscuous Gα16 to divert signaling to the Gq pathway, thus enabling readout of GPCR activation by testing for Calcium flux as described by Liu et al 2003 (Biomol Screen 8, 39-49).
(§2) All the peptides thus obtained were tested for their ability to change calcium flux in CHO-K1 cells (ATCC-CCL-61) transiently co-transfected with an expression vector containing the GPCR of choice and expression vector containing the Gα16 encoding cDNA. Expression constructs containing cDNA clones for MrgX1, MrgX2, Mas or FPRL1 were commercially obtained in one of the following expression vectors: pcDNA3.1, pCMV6, or MO2.
(§3) Transient transfections were performed using CHO-K1 cells as host cells. Cells (12 million) were plated into T75 flasks on the day preceding transfection. Cells were transfected with the appropriate GPCR expression vector and with a vector expressing Gα16 using a lipid-based reagent, MTI, according to the manufacturer's recommendation. Cells were transfected for 5 hours, then re-plated into 96-well dishes (60,000 cells per well) and grown overnight.
On the day of the experiment, cells were loaded with Fluo-4-NW (Invitrogen) according to the manufacturer's recommendation. Plates were loaded into a FlexStation™ (Molecular Devices) plate reader and fluorescence was monitored. […] Each 96 well plate contained cells transfected with one GPCR expression vector and each of the examined peptides was tested in triplicate.
(§4) We defined a hit as a peptide which elicited a clear and distinct increase in intracellular calcium that is clearly visible and statistically significant upon examination of the calcium trace for at least two repeats. The criterion for statistical significance was a p-value lower than 0.001 in a t-test comparing the levels of calcium before and after peptide addition.
The ability of Peptides to change calcium flux was examined in CHO-K1 cells co-transfected with FPRL1 and Gα16.
The P33-derived peptides (see FIG. 1): P33_V (SEQ ID NO:7), P33 (SEQ ID NO:6)-mono, P33 (SEQ ID NO:6)-dimer, P33—5 (SEQ ID NO:27), P33—8 (SEQ ID NO:14), P33—9 (SEQ ID NO:15) and P33—10 (SEQ ID NO:16) were tested for their ability to activate FPRL1 using the calcium flux assay in FPRL1-transfected CHO cells. […] The lack of activity of these peptides might be due to reduced potency; insufficient sensitivity of the experimental system, alternative interaction of the receptor, or activation of other pathways, which are not related to calcium flux. Thus, this interaction should be further characterized.

MrgX2 = target: T2, MrgX2 (Homo sapiens, UniProt Q96LB1); test: Calcium flux in MrgX2-transfected CHO-K1 cells; type: cell-based; details: for calcium flux relative to the negative control: CHO-K1 co-transfected with MrgX2 and Gα16, 1 μM, about 20-90 seconds; for eliciting calcium flux compared with cortistatin-14: summary statement, MrgX2-expressing cells
T2 construct: expressed in transfected cells; host or cells: CHO-K1 (ATCC-CCL-61), transient co-transfection
T2 sequence (Q96LB1 1-330): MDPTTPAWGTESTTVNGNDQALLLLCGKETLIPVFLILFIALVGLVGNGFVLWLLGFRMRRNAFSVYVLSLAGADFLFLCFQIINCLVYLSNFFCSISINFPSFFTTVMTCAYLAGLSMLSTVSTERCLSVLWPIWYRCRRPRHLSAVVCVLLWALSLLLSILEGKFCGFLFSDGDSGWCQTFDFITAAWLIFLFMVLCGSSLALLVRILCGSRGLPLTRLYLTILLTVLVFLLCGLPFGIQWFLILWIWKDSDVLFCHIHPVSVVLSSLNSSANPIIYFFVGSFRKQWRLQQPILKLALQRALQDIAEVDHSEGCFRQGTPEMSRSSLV
Method: as §1, §2, §3
(§5) On the day of the experiment, cells were loaded with Fluo-4-NW (Invitrogen) according to the manufacturer's recommendation. Plates were loaded into a FlexStation™ (Molecular Devices) plate reader and fluorescence was monitored. Seventeen seconds following initiation of reading, cells were stimulated with the indicated agonist/compound at final concentration of 1 μM. Each 96 well plate contained cells transfected with one GPCR expression vector and each of the examined peptides was tested in triplicate.
as §4
The ability of Peptides to change calcium flux was examined in CHO-K1 cells co-transfected with MrgX2 and Gα16.

Mas receptor = target: T3, Mas receptor (Homo sapiens, UniProt P04201); test: Calcium flux in Mas-transfected CHO-K1 cells; type: cell-based; details: dose response, Mas-transfected cells
T3 construct: expressed in transfected cells; host or cells: CHO-K1 (ATCC-CCL-61), transient co-transfection
T3 sequence (P04201 1-325): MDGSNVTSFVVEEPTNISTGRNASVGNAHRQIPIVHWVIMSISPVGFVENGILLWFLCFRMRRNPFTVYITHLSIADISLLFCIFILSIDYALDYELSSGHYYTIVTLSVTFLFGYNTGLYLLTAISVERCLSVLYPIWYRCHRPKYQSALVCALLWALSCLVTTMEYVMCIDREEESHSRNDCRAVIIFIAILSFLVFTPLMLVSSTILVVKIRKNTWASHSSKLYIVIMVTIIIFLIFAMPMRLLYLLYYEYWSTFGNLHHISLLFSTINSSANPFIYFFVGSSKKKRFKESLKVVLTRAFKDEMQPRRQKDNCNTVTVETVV
Method: as §1, §2, §3, §5, §4
Based on dose response experiments, EC50 best fit values were calculated by non-linear regression of sigmoidal dose-response curves, using Prism version 4 (GraphPad Software Inc., San Diego, Calif.). The formulae for the sigmoidal dose-response curves was defined as Y=Bottom+(Top−Bottom)/(1+10^(Log EC50−X)*HillSlope))
The ability of Peptides to change calcium flux was examined in CHO-K1 cells co-transfected with Mas receptor and Gα16.
The P33 monomer and dimer, as well as other P33 derivative peptides were compared for their ability to induce calcium flux in the Mas-transfected cells at 0.1, 1, 10, 100, 1000 and 10000 nM.

[2] = test system: cardiac remodeling induced by Isoproterenol in Wistar rats; test: Cardiac remodeling induced by Isoproterenol; type: in vivo, rat
Method: The effect of the peptides […] (SEQ ID NO:10), […]-dimer ([…]) (SEQ ID NO9), P33_V (SEQ ID NO:7), P33-dimer (P33_D) (SEQ ID NO:6) on cardiac remodeling, was tested by determining their effect on heart hypertrophy and fibrosis (deposition of collagen I, III, and fibronectin) induced by Isoproterenol. Losartan (an antagonist of the known angiotensin II receptor, AT1, Kucharewicz et al., 2002; Hypertension, (40): 774-779) was used as positive control. The negative control group was treated with vehicle only. Additional control groups included rats not-treated with isoproterenol which were treated with the peptides, with Losartan or with the vehicle. The analysis included determination of the left ventricle mass and morphometry. In addition, immunofuorescence analysis of fibronectin and collagens I and III deposition was performed by confocal microcopy. Animals Acclimatization: Male Wistar rats Age: 13-14 weeks (250 to 300 g) were maintained in the animal facilities for 7 days before the beginning of the experiment. The animals were exposed to a brightness circle of light-dark cycle of 12hs (day-06:00 to 18:00; night-18:00 to 06:00), and the room temperature was kept at 23±2° C. Heart failure was induced by daily injections of isoproterenol (2 mg/kg/day, subcutaneously) during 7 days. […] Immunofluorescence-labeling and quantitative confocal microscopy was used to investigate the distribution and quantity of collagen types I, III and fibronectin present in the left ventricles. […] Optimal confocal settings (aperture, gain and laser power) were determined at the beginning of each imaging session and then held constant during the analysis of all the samples. […] For quantitative analysis of collagens I, III, and fibronectin, the ImageTool 2.0 image analysis program was used (see “[…] University of Texas Health Science Center at San Antonio website) to measure the fluorescence intensity in images randomly selected. […]

FPRL1 [3] = target: T1, FPRL1; test: Competitive radioligand binding assay to FPRL1 ([125I] WKYMVm); design: expressed in transfected cells; host or cells: CHO cells; details: 0.025 nM [125I] WKYMVm; CHO transfected cells
Method: The specific binding of Peptide 58 (SEQ ID NO:1) to FPRL1 was analyzed by testing its ability to compete with 0.025 nM [^125I] WKYMVm (W peptide), a known agonist of FPRL1, for binding to FPRL1 in CHO transfected cells. CKβ8-1 (aa 46-137), another known ligand of FPRL1 was used as a positive control in this assay (Chiang et al 2006, Pharmacological Reviews 58, 463-487). Peptides were incubated with cells for 90 minutes at 25° C., in the presence of Incubation Buffer (50 mM HEPES, pH 7.4, 100 mM NaCl, 5 mM KCl, 5 mM MgCl2, 2 mM Ca Cl2, 0.5% BSA) and the amount of radioactive W peptide was measured.

AAQATGPLQDNELPGLDERPPRAHAQHFHKHQLWPSPFRALKPRP (listed as Homo sapiens) [Peptide P94]
calcium flux relative to the negative control (FPRL1 [1]): increased calcium flux
calcium flux relative to the negative control (MrgX2): increased calcium flux
eliciting calcium flux compared with cortistatin-14 (MrgX2): superior to cortistatin-14

FLGYCIYLNRKRRGDPAFKRRLRD (also: dimer via cysteine; listed as Homo sapiens) [Peptide P61_dimer]
ability to induce calcium flux, relative potency (P61 family) (Mas receptor): more potent than the monomeric P61 peptides
heart hypertrophy as measured by deposition of Fibronectin, Collagen I and Collagen III ([2]; 1 ug/hour/Kg by osmotic minipump, partial data, 3 out of 6 animals of each group): effective in reducing the heart hypertrophy
effect as measured by Fibronectin deposition ([2]; partial data, 3 out of 6 animals, FIG. 40): not significant

CCCCc1nc(Cl)c(CO)n1Cc1ccc(-c2ccccc2-c2nn[nH]n2)cc1 [Losartan, reference compound]
left ventricle to body mass ratio (LV/BW) ([2]; isoproterenol 2 mg/kg/day s.c. 7 days, peptides 1 ug/hour/Kg by osmotic minipump, Losartan 1 mg/kg once a day by gavage): did not have an effect

AHAQHFHKHQLWPSPFRALKPRP (listed as Homo sapiens) [Peptide 63]
calcium flux relative to the negative control (MrgX2): increased calcium flux
eliciting calcium flux compared with cortistatin-14 (MrgX2): superior to cortistatin-14

TIPMFVPESTSKLQKFTSWFM-NH2 [Peptide P58]
Ki (FPRL1 [3]): 0.0541 µM
calcium flux relative to the negative control (FPRL1 [1]): increased calcium flux
calcium flux (P58 family) (FPRL1 [1]; dose response, FPRL1 transfected CHO cells): elicited calcium flux
